Here are results for two substances from patent publication US20110262474A1.

Assay [1] addresses recombinant WT HIV-1 JRCSF gp120 core polypeptide (HIV-1 subtype B, strain JRCSF) (UniProt P20871). Nature of the assay: SPR (Biacore 2000), KA = ka/kd from a single-site fit; * best curve fit, dissociation slower than the limit of detection of the instrument. Background: In SPR one partner is held on a chip, and binding of the other changes the refractive index at the surface.
Assay [2] concerns the target recombinant WT HIV-1 JRCSF gp120 full-length polypeptide (HIV-1 subtype B, strain JRCSF) (UniProt P20871). The assay is described as above.
Assay [3] deals with chimeric gp120 core polypeptide variant L7-043. Nature of the assay: SPR (Biacore 2000), KA = ka/kd from a single-site fit.
Assay [4] deals with chimeric gp120 core polypeptide variant L7-043CDC. Described as above.
In assay [5] the target is recombinant WT HIV-1 JRCSF gp120 core polypeptide (HIV-1 subtype B, strain JRCSF) (UniProt P20871). The description is as above.
The target in assay [6] is recombinant WT HIV-1 JRCSF gp120 full-length polypeptide (HIV-1 subtype B, strain JRCSF) (UniProt P20871). The assay is described as above.
In assay [7] the target is chimeric gp120 core polypeptide variant L7-043CDC. Nature of the assay: SPR (Biacore 2000), mAb captured on anti-human gamma chain antibody, gp120 core injected.
The target of assay [8] is chimeric gp120 core polypeptide variant L7-043. Briefly: SPR (Biacore 2000), KA relative to the JR-CSF gp120 core row (= 1).
In assay [9] the target is HIV-1 BaL gp160 envelope protein on pseudovirus (HIV-1 subtype B, strain BaL). Nature of the assay: cell-based or functional assay.
For assay [10], the target named is HIV-1 VLGCG4 gp160 envelope protein on pseudovirus (HIV-1 subtype G, strain VLGCG4). Briefly: cell-based or functional assay.
The target of assay [11] is HIV-1 QH0692 gp160 envelope protein on pseudovirus (HIV-1 subtype B, strain QH0692). Nature of the assay: cell-based or functional assay.
The target in assay [12] is HIV-1 SF162 gp160 envelope protein on pseudovirus (HIV-1 subtype B, strain SF162). Nature of the assay: cell-based or functional assay.
In assay [13] the target is HIV-1 NL4-3 gp160 envelope protein on pseudovirus (HIV-1 subtype B, strain NL4-3). Briefly: cell-based or functional assay.
Assay [14] deals with HIV-1 93MW960 gp160 envelope protein on pseudovirus (HIV-1 subtype C, strain 93MW960). Nature of the assay: cell-based or functional assay.
Assay [15] deals with amphotropic MLV envelope protein on pseudovirus (amphotropic murine leukemia virus). Briefly: cell-based or functional assay.
The target in assay [16] is HIV-1 93BR020 gp160 envelope protein on pseudovirus (HIV-1 subtype F, strain 93BR020). Nature of the assay: cell-based or functional assay.
The target of assay [17] is HIV-1 QZ4589 gp160 envelope protein on pseudovirus (HIV-1 subtype B, strain QZ4589). Briefly: cell-based or functional assay.
Assay [18] addresses HIV-1 JRCSF gp160 envelope protein on pseudovirus (HIV-1 subtype B, strain JRCSF) (UniProt P20871). Nature of the assay: cell-based or functional assay.
For assay [19], the target named is HIV-1 92HT594 gp160 envelope protein on pseudovirus (HIV-1 subtype B, strain 92HT594). Nature of the assay: cell-based or functional assay.
For assay [20], the target named is HIV-1 93BR029 gp160 envelope protein on pseudovirus (HIV-1 subtype F, strain 93BR029). Nature of the assay: cell-based or functional assay.
The target in assay [21] is HIV-1 92RW020 gp160 envelope protein on pseudovirus (HIV-1 subtype A, strain 92RW020). Nature of the assay: cell-based or functional assay.
Assay [22] has as its target HIV-1 6535 gp160 envelope protein on pseudovirus (HIV-1 subtype B, strain 6535). Nature of the assay: cell-based or functional assay.
Assay [23] addresses HIV-1 93TH305 gp160 envelope protein on pseudovirus (HIV-1 subtype E, strain 93TH305). Briefly: cell-based or functional assay.
Assay [24] concerns the target HIV-1 1196 gp160 envelope protein on pseudovirus (HIV-1 subtype B, strain 1196). Briefly: cell-based or functional assay.
Assay [25] concerns the target recombinant WT HIV-1 JRCSF gp120 core polypeptide (HIV-1 subtype B, strain JRCSF) (UniProt P20871). Briefly: SPR (Biacore 2000), mAb captured on anti-human gamma chain antibody, gp120 injected.
The target of assay [26] is recombinant WT HIV-1 JRCSF gp120 full-length polypeptide (HIV-1 subtype B, strain JRCSF) (UniProt P20871). The description is as above.

Bounds are passed on as bounds.

Consider human monoclonal antibody IgG1b6, for which the Ka in assay [1] was 6.32e+12 M⁻¹; in assay [2], 4.08e+11 M⁻¹.

Turning to human monoclonal antibody IgG1b12, the Ka was 3.8e+08 M⁻¹ in [3]; 2.58e+08 M⁻¹ in assay [4]; 3.43e+07 M⁻¹ in [5]; 3.62e+07 M⁻¹ in [6]; greater than 1e+07 M⁻¹ in [25]; greater than 1e+07 M⁻¹ in assay [26]. Moreover, in assay [7], the fold increase in b12 affinity against JRCSF gp120 core polypeptide is greater than 7.5 fold. Besides, in assay [8], the Fold Increase was 11. Further, the IC50 neutralization titer of pseudovirus (luciferase entry assay) was determined as 0.01 µg/mL in [9]; 0.04 µg/mL in assay [10]; 0.1 µg/mL in assay [11]; 0.01 µg/mL in [12]; 0.01 µg/mL in assay [13]; 0.06 µg/mL in assay [14]. In addition, the IC50 neutralization titer of pseudovirus (luciferase entry assay) in assay [15] was greater than 2.5 µg/mL; in [16], 2.08 µg/mL; in [17], 0.03 µg/mL; in assay [18], 0.06 µg/mL; in assay [19], 0.02 µg/mL; in assay [20], 1.67 µg/mL. Besides, the IC50 neutralization titer of pseudovirus (luciferase entry assay) in [21] came out at 1.67 µg/mL; in assay [22], 0.64 µg/mL; in assay [23], 0.71 µg/mL; in assay [24], 0.48 µg/mL.
